{"source": "paper PMC12631472", "about": "“Low-Cost Label-Free Electrochemical Aptasensor for Dual Detection of Dengue and Zika Using Fluorine-Doped Tin Oxide Modified with APTES and Gold Nanoparticles”", "target": "Dengue NS1 (NS1-D) (Dengue virus serotype 4, UniProt P09866 775-1126)", "sequence (P09866 775-1126)": "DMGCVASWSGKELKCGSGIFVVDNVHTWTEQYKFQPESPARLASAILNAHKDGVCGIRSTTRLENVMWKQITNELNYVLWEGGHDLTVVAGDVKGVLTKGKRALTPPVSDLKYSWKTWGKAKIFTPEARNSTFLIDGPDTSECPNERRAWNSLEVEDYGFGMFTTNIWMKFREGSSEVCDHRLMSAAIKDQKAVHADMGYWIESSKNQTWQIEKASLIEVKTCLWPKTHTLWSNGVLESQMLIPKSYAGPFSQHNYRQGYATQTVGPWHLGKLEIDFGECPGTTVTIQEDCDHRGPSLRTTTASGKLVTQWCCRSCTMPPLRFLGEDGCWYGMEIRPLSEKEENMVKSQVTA", "assay": "electrochemical impedance spectroscopy; PBS; 1000 ng/mL NS1-D; dRct 114.1 ± 0.2%; LoD 0.21 ng/mL; PBS or commercial human serum; aptamer immobilized at 4 °C in 0.8 M PB, 1.0 M NaCl, 5 mM MgCl2, 1 mM EDTA, pH 7; aptamer:total thiol 1:250; assay temperature not stated", "conditions": "protein: commercial; chain copies: 2", "data": [{"binder": "TTTTAGCGGATCCGATGGGTGGGGGGGTGGGTAGGATCCGCG (structured_DNA, 5'-HS-(CH2)6 thiol)", "note": "[NS1 DNA aptamer]", "values": [{"measurement": "binding result", "value": "binds"}]}]}
